This is an account of results in patent publication US11448657B2, “Methods and kits for assessing Heparanase procoagulant activity, compositions comprising Heparanase, and methods for the treatment of coagulation-related disorders” (RAMBAM MED-TECH, priority 2011, dated 2022).

Substitutions are numbered along the chain they refer to. Entries after “also recorded” stand apart in the source; their conditions may differ. Ends that are not written are not given here.

Data set [1] is described as follows: Water solubility of the peptides. The format is physicochemical.
Data set [2] has as its target T1, TF/heparanase complex (Homo sapiens, UniProt P13726+Q9Y251, DEL111-157/INS109GSGSG).
T1 construct: comprised of the 8 kDa and 50 kDa heparanase heterodimer (8+50); purchased American Diagnostica (Stanford, Conn., USA) for TF and factor VIIa; host or cells: heparanase GS3 made in house: conditioned medium of baculovirus-infected cells
Kind of data set: Inhibition of heparanase procoagulant activity in the factor Xa generation assay. In kind it is biochemical. The note with it: for procoagulant effect of heparanase on Xa level: co-addition of peptide with heparanase, FIG. 23A; for procoagulant effect induced by heparanase (Xa level): peptide 25 μg/ml (15 μM), heparanase 1.5 μM, FIG. 26. How it is done: FIG. 23A. Factor Xa levels was evaluated by chromogenic substrate in an in-vitro assay including purified proteins of tissue factor (TF), factor VIIa, factor X and assay buffer.
FIG. 26. Factor Xa levels was evaluated by chromogenic substrate in an in-vitro assay including lipidated TF (0.004 μM), factor VIIa (0.04 μM) and factor X (1.4 μM). The Xa level was studied by a chromogenic substrate (1 mM).
(§1) Following preliminary experiments to quantify the appropriate protein doses, we performed a basic experiment of factor Xa generation in the following manner: the concentrations mentioned are the final concentrations. Lipidated recombinant human TF (0.004 μM, […]), recombinant human factor VIIa (0.04 μM) and plasma-derived human factor X (1.4 μM) were incubated in 50 μL assay buffer (0.06 M Tris, 0.04 M NaCl, 2 mM CaCl 2, 0.04% bovine serum albumin, pH 8.4) to a total volume of 125 μL in a 96-well sterile plate. After 15 min at 37° C., chromogenic substrate for factor Xa was added (1 mM). After 20 min, the reaction was stopped with 50 μL of glacial acetic acid and the level of factor Xa generation was determined using an enzyme-linked immunosorbent assay (ELISA) plate reader (Power Wave XS, BIO-TEK, VT, USA). In order to visualize the increased production of factor Xa by western blotting, the experiment was repeated with 7 μM factor X. After 15 min at 37° C., half of the reaction volume was subjected to blotting using monoclonal anti-human factor X/Xa heavy chain antibody.
The coagulation assay included the peptides and the following components: lipidated TF (0.004 μM), factor VIIa (0.04 μM) and factor X (1.4 μM). The Xa level was studied by a chromogenic substrate (1 mM).

Data set [3] has as its target T2, TF/heparanase complex (Homo sapiens, UniProt Q9Y251).
T2 construct: endogenous in cells; host or cells: ICR mice in vivo (TF endogenous)
T2 sequence (Q9Y251 36-543): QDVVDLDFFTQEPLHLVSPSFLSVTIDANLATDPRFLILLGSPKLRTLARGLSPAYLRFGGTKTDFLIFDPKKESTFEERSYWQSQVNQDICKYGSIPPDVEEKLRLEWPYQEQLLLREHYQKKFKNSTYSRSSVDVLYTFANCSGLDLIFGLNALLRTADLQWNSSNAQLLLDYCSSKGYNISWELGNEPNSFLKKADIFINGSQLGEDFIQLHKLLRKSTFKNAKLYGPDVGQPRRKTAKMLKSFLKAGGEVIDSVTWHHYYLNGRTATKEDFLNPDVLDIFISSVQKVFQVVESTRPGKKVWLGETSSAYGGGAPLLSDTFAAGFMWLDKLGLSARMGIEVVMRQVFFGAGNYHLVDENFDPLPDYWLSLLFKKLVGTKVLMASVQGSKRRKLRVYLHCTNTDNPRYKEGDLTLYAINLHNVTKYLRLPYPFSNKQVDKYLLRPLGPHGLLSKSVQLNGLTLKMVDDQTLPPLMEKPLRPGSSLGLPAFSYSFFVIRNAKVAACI
Kind of data set: TF/heparanase inhibitory peptides in heparanase-injected ICR mice (TAT by ELISA). The format is in vivo. To be noted: peptide intra-peritoneal half an hour after heparanase, blood after 4 hours. How it is done:
FIG. 23B. Heparanase was injected intra-peritoneal to ICR mice. Inhibitory peptides to TF/heparanase complex (number 5, 6, 21) were injected intra-peritoneal half an hour after heparanase. Four hours later the blood was drawn and Thrombin-antithrombin (TAT) level was measured by ELISA.
Methods: ICR mice, heparanase knock-out mice and heparanase over-expression mice were studied. Sepsis was induced by intra-peritoneal injection of lipopolysaccharides (LPS). Inhibitory peptides to TF/heparanase complex (number 11, 22, 5, 6, 7, 12, and 21 [SEQ IDs: 1-7]) were injected intra-peritoneal half an hour after heparanase or LPS. After 4 hours blood was obtained via sub-mandibular plexus puncture followed by mice sacrificing. Levels of thrombin-antithrombin (TAT), D-Dimer and IL-6 were tested using ELISA. Western blot to plasma factor VII and immunostaining of fibrinogen in lung, kidney and spleen were performed.
In general terms: In an ELISA, binding on a coated surface is turned into a signal by an enzyme label.

Data set [4] concerns the target T1, TF/heparanase complex. Kind of data set: Inhibition of heparanase procoagulant activity in the thrombin generation assay. In kind it is biochemical. The note with it: for heparanase procoagulant activity (thrombin generation): inhibitor added to the thrombin generation assay with heparanase. The protocol: FIG. 6B. Heparanase procoagulant activity is attenuated by TFPI and TFPI-2. Same as FIG. 1D, except that recombinant human TFPI and TFPI-2 were added prior to heparanase addition. The mean value±SD of three independent experiments is shown.
FIG. 6C. Heparanase procoagulant activity is abrogated by an anti-Xa derivative.
In order to verify that factor Xa produced in the presence of heparanase is active, thrombin generation, the next step in the coagulation cascade, was examined. The experiment described above (FIG. 1A) was repeated and plasma-derived human prothrombin (222 μM) was added following the addition of factor X. After 15 minutes at 37° C., chromogenic substrate for thrombin was added (1 mM). In the presence of heparanase, thrombine generation was increased (FIG. 1D).

Data set [5] deals with T3, TF-factor VIIa complex (Homo sapiens, UniProt P13726).
T3 construct: purchased American Diagnostica (Stanford, Conn., USA)
The data set is described as follows: Activated factor X generation assay with purified TF, factor VIIa and factor X (chromogenic substrate). To be noted: overnight serum-free medium of 293 HEK cells over-expressing heparanase species, compared to mock. In kind it is biochemical. The protocol:
FIG. 1A. Recombinant human TF, recombinant human factor VIIa, and plasma-derived human factor X were incubated (15 min, 37° C.) in a total assay volume of 125 μL. Chromogenic substrate for the detection of factor Xa was then added (final concentration 1 mM). Recombinant active heparanase GS3 (Hepa) was added prior to the addition of the coagulation factors. The mean value±SD of three independent experiments in shown. […]
FIG. 1C. […] The mean value of two experiments is shown. Note a 2-fold increase in coagulation activity when the medium contained heparanase or its derivatives.
as §1
The factor Xa generation assay was performed as described in the Design and Methods section with increasing doses of recombinant human heparanase (GS3) added prior to the addition of the coagulation factors. […] It should be noted that factor X is composed of two polypeptide chains, a heavy chain with a molecular weight of 38 kDa and a light chain with a molecular weight of 18 kDa joined by a dipeptide Arg-Arg. The factor VIIa-TF complex activates the conversion of factor X to factor Xa by cleaving the heavy chain to a 33 kDa peptide. […] In order to exclude contamination of the heparanase preparation during the routine procedure of purification described in the Design and Methods section, the inventors tested the effect of overnight serum-free without phenol medium of 293 HEK cells over-expressing heparanase and its derivatives compared to mock. The proteins were further purified from the culture medium and analyzed. Similar quantities of proteins were obtained from the culture media.

T1 sequence (P13726 33-295, stated change not applied, one chain of several): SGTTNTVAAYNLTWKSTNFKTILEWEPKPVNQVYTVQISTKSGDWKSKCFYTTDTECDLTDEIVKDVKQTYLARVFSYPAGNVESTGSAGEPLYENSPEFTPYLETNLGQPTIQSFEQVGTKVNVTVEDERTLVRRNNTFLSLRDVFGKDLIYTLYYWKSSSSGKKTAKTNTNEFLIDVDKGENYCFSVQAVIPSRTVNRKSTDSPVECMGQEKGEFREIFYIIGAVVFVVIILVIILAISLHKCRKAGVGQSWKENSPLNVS
T3 sequence (P13726 33-295): as the sequence (P13726 33-295, stated change not applied, one chain of several) above
T3 sequence (P08709 61-212 partner limits assumed): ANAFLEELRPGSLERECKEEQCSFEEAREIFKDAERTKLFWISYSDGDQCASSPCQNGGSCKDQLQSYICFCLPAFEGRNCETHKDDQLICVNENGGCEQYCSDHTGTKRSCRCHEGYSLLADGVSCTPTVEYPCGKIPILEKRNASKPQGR
T3 sequence (P08709 213-466 partner limits assumed): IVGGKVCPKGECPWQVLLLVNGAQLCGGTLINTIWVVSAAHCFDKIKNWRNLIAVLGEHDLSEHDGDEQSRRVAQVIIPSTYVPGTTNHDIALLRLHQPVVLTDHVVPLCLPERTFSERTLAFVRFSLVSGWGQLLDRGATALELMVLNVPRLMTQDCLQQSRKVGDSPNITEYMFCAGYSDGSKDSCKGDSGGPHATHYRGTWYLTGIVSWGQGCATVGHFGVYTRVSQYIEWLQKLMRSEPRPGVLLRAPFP

In the case of Ac-NNAEICLLPLDYGP [Peptide 7-Ac], the “water solubility compared to non-acetylated counterpart” value in data set [1] is listed as “more water soluble than their corresponding non acetylated counterparts”.
In the case of “ICLLPLDYGPCRAL (cysteine pairing not given here) [Peptide 5]”, in data set [2], the “procoagulant effect of heparanase on Xa level” value is on record as “abolished the procoagulant effect of heparanase” and the “procoagulant effect induced by heparanase (Xa level)” value (“procoagulant effect induced” for short) is given as “inhibited the procoagulant effect induced by heparanase”. Besides, in data set [3], the “procoagulant effect of heparanase (TAT level)” value is “markedly decreased heparanase effect”.
For “Ac-Ile Cys Leu Leu Pro Leu Asp Tyr Gly Pro Cys Arg Ala Leu (Ac-ICLLPLDYGPCRAL; cysteine pairing not given here) [Peptide 5-Ac]”, in data set [2], the “procoagulant effect induced” value is given as “inhibited the procoagulant effect induced by heparanase”.
With “TFPI: recombinant human tissue factor pathway inhibitor [reference compound]”, the “heparanase procoagulant activity (thrombin generation)” value (from here on “heparanase procoagulant activity”) in data set [4] is “attenuated the effect; also recorded: mildly attenuated thrombin generation but failed to abolish the procoagulant effect of heparanase”.
Consider “Ac-AEICLLPLDYGPCR (cysteine pairing not given here) [Peptide 6-Ac]”, for which the “procoagulant effect induced” value in data set [2] is “inhibited the procoagulant effect induced by heparanase”.
Consider “AEICLLPLDYGPCR (cysteine pairing not given here) [Peptide 6]”, for which, in data set [2], the “procoagulant effect of heparanase on Xa level” value is “abolished the procoagulant effect of heparanase” and the “procoagulant effect induced” value is given as “inhibited the procoagulant effect induced by heparanase”. Besides, the “procoagulant effect of heparanase (TAT level)” value in data set [3] is “completely abolished the procoagulant effect of heparanase”.
On to NNAEICLLPLDYGP [Peptide 7], for which, in data set [2], the “procoagulant effect of heparanase on Xa level” value is on record as “abolished the procoagulant effect of heparanase” and the “procoagulant effect induced” value is “inhibited the procoagulant effect induced by heparanase”.
As for NANNFYTWEAC [Peptide 21], the “procoagulant effect of heparanase on Xa level” value in data set [2] is given as “abolished the procoagulant effect of heparanase”. Moreover, the “procoagulant effect of heparanase (TAT level)” value in data set [3] is recorded as “markedly decreased heparanase effect”.
With `O=C(NC[C@H]1CN(c2ccc(N3CCOCC3=O)cc2)C(=O)O1)c1ccc(Cl)s1` [Rivaroxaban, reference compound], the “heparanase procoagulant activity” value in data set [4] was “abolished the effect of heparanase”; in data set [4] (listed as rivaroxaban), “abolished the procoagulant effect of heparanase”.
Regarding RYYYDRYTQSCRQF [Peptide 12], the “procoagulant effect of heparanase on Xa level” value in data set [2] is listed as “abolished the procoagulant effect of heparanase”.

B1: TFPI-2: recombinant human tissue factor pathway inhibitor 2, purchased from R&D (protein, UniProt P48307 23-235, looked up)
Tissue factor pathway …: DAAQEPTGNNAEICLLPLDYGPCRALLLRYYYDRYTQSCRQFLYGGCEGNANNFYTWEACDDACWRIEKVPKVCRLQVSVDDQCEGSTEKYFFNLSSMTCEKFFSGGCHRNRIENRFPDEATCMGFCAPKKIPSFCYSPKDEGLCSANVTRYYFNPRYRTCDAFTYTGCGGNDNNFVSREDCKRACAKALKKKKKMPKLRFASRIRKIRKKQF
As to B1, the “heparanase procoagulant activity” value in data set [4] is “attenuated the effect; also recorded: mildly attenuated thrombin generation but failed to abolish the procoagulant effect of heparanase”. In addition, the “inhibitory potency compared to TFPI in the presence of heparanase” value in data set [4] (thrombin generation with heparanase) is given as “more effective inhibitor than TFPI; also recorded: more potent than TFPI”.

B2: double mutant inactive heparanase: heparanase mutated at Glu225 and Glu343, critical for the enzyme catalytic activity (protein)
chain: T2 sequence (Q9Y251 36-543) with E190A, E308A
Turning to B2, the “increase in factor Xa levels” value in data set [5] is listed as “increased factor Xa levels”.
